3 molecules from patent US20100204091A1 (YEDA RESEARCH AND DEVELOPMENT, published 2010) can be followed below.

In experiment [1] the target is T1, FLAG tagged TRAF2 (UniProt Q12933 1-501).
T1 construct: For in vitro assays purified on anti-FLAG M2 beads and eluted with FLAG peptide; also called FLAG-TRAF2
T1 sequence (looked up): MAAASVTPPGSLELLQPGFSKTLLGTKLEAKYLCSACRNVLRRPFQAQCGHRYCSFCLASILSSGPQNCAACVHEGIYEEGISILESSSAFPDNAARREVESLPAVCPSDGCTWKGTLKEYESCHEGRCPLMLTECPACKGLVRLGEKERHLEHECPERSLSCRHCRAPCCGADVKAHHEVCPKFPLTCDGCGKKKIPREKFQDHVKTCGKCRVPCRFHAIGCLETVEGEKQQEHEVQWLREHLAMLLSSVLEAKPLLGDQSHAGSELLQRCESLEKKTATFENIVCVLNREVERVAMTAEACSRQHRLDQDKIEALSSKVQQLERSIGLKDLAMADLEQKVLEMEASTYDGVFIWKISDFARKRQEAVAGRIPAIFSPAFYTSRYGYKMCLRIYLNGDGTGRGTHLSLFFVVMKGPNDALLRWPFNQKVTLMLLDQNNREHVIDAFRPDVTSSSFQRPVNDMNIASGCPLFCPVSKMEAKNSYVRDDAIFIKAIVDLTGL
Put plainly: in vitro incubation of eluted FLAG TRAF2 with bacterial GST tagged SIVA2, anti-FLAG IP, anti SIVA blot. Here is the method: (§1) In order to explore whether TRAF2 binds to SIVA2, FLAG tagged TRAF2 was immuno-precipitated from transfected […] cells using anti-FLAG M2 beads. TRAF2 was eluted from the beads using FLAG peptide. The eluted FLAG tagged TRAF2 was incubated with recombinant (bacterially expressed) GST tagged SIVA2 or GST tagged ring finger mutant SIVA2 at 30° C. for one hour in a volume of 50 μl of buffer (30 mM HEPES, pH 7.6, 5 mM MgCl2, 0.2 mM DTT). Next, the binding mix was diluted to 1 ml to attain the following composition −30 mM HEPES, 5 mM MgCl2, 0.2 mM DTT, 150 mM NaCl, 1% Triton X100 and 1 mM EDTA. Immunoprecipitation was carried out with anti-FLAG for TRAF2 and Western blotting analysis was carried out with anti SIVA to detect coprecipitating SIVA. […] The latter was confirmed in the following experiment. HEK 293T cells were co-transfected with 12 ug of HIS-SIVA2 or deletions of SIVA2 lacking the ring finger (SIVA2 1-58 and SIVA 1-81) and FLAG-TRAF2 by calcium phosphate method. 24 hours post transfection; cells were harvested and lysed in 1% Triton containing lysis buffer. TRAF2 was immunoprecipitated using anti FLAG-M2 beads and coprecipitated SIVA2 was probed by Western blotting using anti HIS antibody. Total lysis in FIG. 11D show the expression levels of the proteins. […] (FIG. 11D).

Experiment [2] concerns the target T2, NF-κB-inducing kinase, NIK, (MAP3K14) (human, UniProt Q99558 1-947).
T2 construct: in yeast two-hybrid used as bait fusion; also called myc-NIK; wild type NIK
As to the kind of experiment: co-immunoprecipitation from transfected cells (deletion analysis).

The target in experiment [3] is T1, FLAG tagged TRAF2. Put plainly: co-immunoprecipitation with anti FLAG-M2 beads from transfected HEK 293T cells, anti HIS blot. How it is done:
as §1

The target in experiment [4] is T2, NF-κB-inducing kinase, NIK, (MAP3K14). Put plainly: yeast two-hybrid, human bone-marrow library, NIK as bait. How it is done:
Yeast two-hybrid screening: The system used for screening was the Matchmaker version III (clontech). The prey was pre-transformed human bone marrow library (cat# HY4053AH) that offers high stringent quadruple drop out (QDO) selection along with a-gal assay. Clones growing on plates without LEU, TRP, HIS and ADE were reconfirmed by a-gal assay, which is much more specific than the usual, often leaky, b-gal assay. Plasmids of the positive clones were prepared as follows. Single clones were inoculated into QDO liquid broth and grown overnight at 37° C. Cells were pelleted at 10,000 g and resuspended in 200 μl of buffer containing 2% Triton X-100, 1% SDS, 100 mM NaCl, 10 mM Tris pH8.0, and 1 mM EDTA. The lysates were vortexed for 2 min after adding 200 μl of phenol: chloroform: isoamyl alcohol (25:24:1) and 0.3 g of 600 microns acid washed glass beads (Sigma). Supernatant was collected by centrifugation at 12,000 g and the DNA was precipitated by sodium acetate/ethanol precipitation method (Sambrook et al., 1989). Encoded inserts from the plasmids were amplified by PCR with the primers specific for the library vector pACT2. For further biochemical analysis of individual clones, the amplicons were directly cloned into the N-terminally HIS tagged mammalian expression vector pcDNA3.1 (Invitrogen).

No end group written: not given here.

T2 sequence (Q99558 whole entry, the tested form may be a part): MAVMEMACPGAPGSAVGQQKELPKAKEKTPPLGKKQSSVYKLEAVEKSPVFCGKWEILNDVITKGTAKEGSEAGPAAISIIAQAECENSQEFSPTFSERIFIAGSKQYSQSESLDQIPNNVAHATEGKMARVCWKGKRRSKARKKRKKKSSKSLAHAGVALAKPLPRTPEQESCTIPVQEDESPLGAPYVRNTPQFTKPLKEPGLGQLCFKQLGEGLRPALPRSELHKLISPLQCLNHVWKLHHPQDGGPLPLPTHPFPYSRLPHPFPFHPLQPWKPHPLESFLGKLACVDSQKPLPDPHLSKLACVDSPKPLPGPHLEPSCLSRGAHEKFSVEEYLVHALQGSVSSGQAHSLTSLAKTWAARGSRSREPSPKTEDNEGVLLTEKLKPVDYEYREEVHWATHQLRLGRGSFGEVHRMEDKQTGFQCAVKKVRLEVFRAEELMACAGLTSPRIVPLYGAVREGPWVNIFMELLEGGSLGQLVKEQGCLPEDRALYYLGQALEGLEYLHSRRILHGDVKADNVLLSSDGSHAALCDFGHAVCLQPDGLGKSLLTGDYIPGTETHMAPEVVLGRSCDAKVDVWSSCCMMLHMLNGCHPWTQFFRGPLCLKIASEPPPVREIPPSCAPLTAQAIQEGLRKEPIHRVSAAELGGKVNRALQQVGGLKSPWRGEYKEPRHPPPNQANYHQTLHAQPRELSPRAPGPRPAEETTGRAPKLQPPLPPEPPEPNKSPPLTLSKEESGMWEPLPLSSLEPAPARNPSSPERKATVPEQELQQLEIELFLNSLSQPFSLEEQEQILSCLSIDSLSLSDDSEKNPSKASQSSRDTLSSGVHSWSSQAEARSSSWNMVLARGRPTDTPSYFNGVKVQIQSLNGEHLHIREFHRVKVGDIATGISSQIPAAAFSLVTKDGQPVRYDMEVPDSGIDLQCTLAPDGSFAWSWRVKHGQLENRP

B1: GST-SIVA2 (bacterially expressed GST tagged SIVA2) (other)
chain: MPKRSCPFADVAPLQLKVRVSQRELSRGVCAERYSQEVFDPSGVASIACSSCVRAVDGKAVCGQCERALCGQCVRTCWGCGSVACTLCGLVDCSDMYEKVLCTSCAMFET
notes: Cloned into pGEX and expressed in BL-21 cells; also called recombinant GST-SIVA; recombinant SIVA2; not shown: glutathione S-transferase tag of the pGEX vector
On to B1, for which, in experiment [1], the binding result was “binds”.

B2: SIVA2 1-58 (other)
chain: MPKRSCPFADVAPLQLKVRVSQRELSRGVCAERYSQEVFDPSGVASIACSSCVRAVDG
modifications: cysteine pairing not given here; also: His tag, sequence and position not given here
notes: HIS tagged deletion mutant lacking ring and zinc fingers; also called SIVA 1-58; SIVA2 N-terminus
Regarding B2, the binding result in experiment [2] and in experiment [3] was “no binding” throughout.

B3: SIVA-C (C-terminal part of SIVA, amino acids 123-175 in SIVA1 or 58-110 in SIVA2) (other)
chain: KAVCGQCERALCGQCVRTCWGCGSVACTLCGLVDCSDMYEKVLCTSCAMFET
notes: Prey fragment from a human bone marrow two-hybrid library; in mammalian cells HIS tagged; also called SIVA-C terminus; C-terminal fragment of SIVA
On to B3, for which the binding result in experiment [4] is on record as “binds”.
